This is an account of results in patent US20140221611A1.

The target in assay [1] is REFACTO® factor VIII-like polypeptide (amino acids 1-743 and 1638 through 2332 of human factor VIII) (human) (UniProt P00451). In words: phage ELISA. In general terms: ELISA stands for enzyme-linked immunosorbent assay.
For assay [2] the target is unchanged. The assay can be described thus: phage ELISA, anti-M13-HRP.
Assay [3] has the same target. In words: affinity column of immobilised peptide; fractions by RP-HPLC.
The target is the same in assay [4]. In words: affinity column of immobilised peptide; fractions by factor VIII activity assay.

Positions of bridges follow the written chain, without caps; N, C: chain ends. No end group written: not given here. *: point of attachment. NHNH2 = NN*

Sequence of REFACTO® factor VIII-like polypeptide (amino acids 1-743 and 1638 through 2332 of human factor VIII) (human) (P00451 20-762, chain 1 of 2): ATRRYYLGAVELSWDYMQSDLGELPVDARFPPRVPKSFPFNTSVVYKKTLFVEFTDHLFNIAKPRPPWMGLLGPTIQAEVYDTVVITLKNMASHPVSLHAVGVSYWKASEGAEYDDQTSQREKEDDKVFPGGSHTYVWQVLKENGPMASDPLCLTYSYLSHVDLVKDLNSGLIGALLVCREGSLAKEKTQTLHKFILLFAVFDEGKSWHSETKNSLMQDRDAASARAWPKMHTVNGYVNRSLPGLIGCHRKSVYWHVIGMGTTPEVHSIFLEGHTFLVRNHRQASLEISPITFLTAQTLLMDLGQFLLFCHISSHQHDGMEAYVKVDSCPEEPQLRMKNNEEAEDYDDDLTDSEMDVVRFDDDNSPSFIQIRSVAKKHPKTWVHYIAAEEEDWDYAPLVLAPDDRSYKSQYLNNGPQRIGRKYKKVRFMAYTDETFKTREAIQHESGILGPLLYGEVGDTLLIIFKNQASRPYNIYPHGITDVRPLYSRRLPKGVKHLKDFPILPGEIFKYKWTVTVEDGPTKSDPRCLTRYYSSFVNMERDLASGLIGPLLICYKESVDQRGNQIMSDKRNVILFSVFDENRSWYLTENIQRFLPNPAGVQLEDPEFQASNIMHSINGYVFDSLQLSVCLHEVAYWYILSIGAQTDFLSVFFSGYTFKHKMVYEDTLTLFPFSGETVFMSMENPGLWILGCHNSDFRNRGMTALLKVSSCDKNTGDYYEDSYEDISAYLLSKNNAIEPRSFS
Sequence of REFACTO® factor VIII-like polypeptide (amino acids 1-743 and 1638 through 2332 of human factor VIII) (human) (P00451 1657-2351, chain 2 of 2): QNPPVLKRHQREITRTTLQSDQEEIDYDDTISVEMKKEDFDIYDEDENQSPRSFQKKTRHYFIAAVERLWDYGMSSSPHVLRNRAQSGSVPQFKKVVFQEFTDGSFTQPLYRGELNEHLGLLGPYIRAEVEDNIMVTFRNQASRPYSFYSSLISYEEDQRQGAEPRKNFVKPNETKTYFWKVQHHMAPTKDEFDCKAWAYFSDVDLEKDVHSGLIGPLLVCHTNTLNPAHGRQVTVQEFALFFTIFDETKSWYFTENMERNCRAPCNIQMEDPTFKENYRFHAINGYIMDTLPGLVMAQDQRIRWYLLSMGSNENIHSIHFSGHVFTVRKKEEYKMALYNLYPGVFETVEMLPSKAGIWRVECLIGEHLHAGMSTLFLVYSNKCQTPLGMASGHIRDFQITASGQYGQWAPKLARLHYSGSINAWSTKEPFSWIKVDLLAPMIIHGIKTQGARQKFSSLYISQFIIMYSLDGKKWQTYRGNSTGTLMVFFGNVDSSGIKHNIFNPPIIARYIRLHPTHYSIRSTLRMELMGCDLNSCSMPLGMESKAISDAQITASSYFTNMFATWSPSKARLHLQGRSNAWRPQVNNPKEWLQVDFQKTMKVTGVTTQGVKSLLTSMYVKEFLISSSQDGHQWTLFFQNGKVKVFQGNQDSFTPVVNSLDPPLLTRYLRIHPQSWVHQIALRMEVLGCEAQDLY

On to FCWVFPFQHCA [TN9 isolate 09 (phage-displayed peptide, SEQ ID NO: 29)], for which the R (ratio of the ELISA score with target present to the ELISA score without target) in assay [1] was found to be 24. The molecule also yielded an ELISA signal in assay [2] of 1.1 OD630.
HSCGSWLFPCFA [TN7 isolate A06 (phage-displayed peptide, SEQ ID NO: 4)]: the R (ratio of the ELISA score with target present to the ELISA score without target) in assay [1] was determined as 10. The same molecule had an ELISA signal in assay [2] of 0.5 OD630.
The molecule FCHVFHFSHCD [TN9 isolate 01 (phage-displayed peptide, SEQ ID NO: 24)] had an ELISA signal in assay [2] of 0.2 OD630.
For the molecule HRCGSWLHPCLA [TN8 isolate 11/G10 (phage-displayed peptide, SEQ ID NO: 21)], the R (ratio of the ELISA score with target present to the ELISA score without target) in assay [1] worked out at 6. In assay [2], this molecule registered an ELISA signal of 0.3 OD630.
The matching figures for FCHVFNFVHCS [TN9 isolate 01 (phage-displayed peptide, SEQ ID NO: 31)]: 8 and 0.5 OD630.
As for FGCSWLFPCPF [TN7 isolate A08 (phage-displayed peptide, SEQ ID NO: 5)], in assay [1], the R (ratio of the ELISA score with target present to the ELISA score without target) was determined as 8. In addition, the ELISA signal in assay [2] was determined as 0.4 OD630.
The matching figures for RLCSWISPCSA [TN7 isolate D04 (phage-displayed peptide, SEQ ID NO: 7)]: 6 and 0.3 OD630.
As to AEGTGDFCWVFPFHHCFDPGPEGGGS-NHNH2 (disulfide 8-16 (inferred)) [Affinity ligand CS-460], in assay [3], the % recovery in Elution A is 28.8%, the % recovery in Elution B came out at 0%, the % recovery in Flow is 24.6% and the % recovery in pH 2 is 0%. Moreover, in assay [4], the % recovery in Elution A is 0% and the % recovery in Flow was found to be 28.4%.
FCHVFPFLHCD [TN9 isolate 11 (phage-displayed peptide, SEQ ID NO: 32)] displayed an ELISA signal in assay [2] of 0.2 OD630.
In assay [3], AEGTGDHPCGSWLRPCLHDPGPEGGGS-NHNH2 (disulfide 9-16 (inferred)) [Affinity ligand CS-453] had a % recovery in Elution A of 43.2%, a % recovery in Elution B of 0%, a % recovery in Flow of 0% and a % recovery in pH 2 of 0%. Moreover, in assay [4], the % recovery in Elution A is 26.4% and the % recovery in Flow is 0%.
As to FCWVFPFHHCF [TN9 isolate 06 (phage-displayed peptide, SEQ ID NO: 30)], the R (ratio of the ELISA score with target present to the ELISA score without target) in assay [1] was 6. The molecule also yielded an ELISA signal in assay [2] of 0.3 OD630.
The like results for FCWVFPFNHCS [TN9 isolate 12 (phage-displayed peptide, SEQ ID NO: 28)] were, in that order, 18 and 1 OD630.
The like results for HLCGAWFRPCDA [TN8 isolate 02 (phage-displayed peptide, SEQ ID NO: 16)] were, in that order, 6 and 0.4 OD630.
The matching figures for HACGSWFRPCHA [TN8 isolate 07 (phage-displayed peptide, SEQ ID NO: 15)]: 6 and 0.4 OD630.
In assay [3], AEGTGDFGCSWLFPCPFDPGPEGGGS-NHNH2 (disulfide 9-15 (inferred)) [Affinity ligand CS-456] gave a % recovery in Elution A of 44.8%, a % recovery in Elution B of 0%, a % recovery in Flow of 3.4% and a % recovery in pH 2 of 0%. In addition, in assay [4], the % recovery in Elution A was found to be 43% and the % recovery in Flow turned out to be 4.8%.
As for HPCGSWLRPCLH [TN8 isolate 10 (phage-displayed peptide, SEQ ID NO: 10)], in assay [1], the R (ratio of the ELISA score with target present to the ELISA score without target) was determined as 16. In addition, in assay [2], the ELISA signal came to 1 OD630.
As for FCWVFNWVHCD [TN9/1 isolate … (SEQ ID NO: 75)], the R (ratio of the ELISA score with target present to the ELISA score without target) in assay [1] turned out to be 14.
Take HLCFAWFRPCDA [TN8 isolate 12 (phage-displayed peptide, SEQ ID NO: 17)]: the R (ratio of the ELISA score with target present to the ELISA score without target) in assay [1] came out at 8. The molecule further came in with an ELISA signal in assay [2] of 0.4 OD630.
The like results for HPCGSWFRPCFH [TN8 isolate 02 (phage-displayed peptide, SEQ ID NO: 14)] were, in that order, 16 and 0.7 OD630.
In assay [2], PHCNWLFPCSL [TN7 isolate D03 (phage-displayed peptide, SEQ ID NO: 6)] displayed an ELISA signal of 0.2 OD630.
Regarding FCWVFAFDHCH [TN9/1 isolate … (SEQ ID NO: 71)], in assay [1], the R (ratio of the ELISA score with target present to the ELISA score without target) was 24.
In assay [3], AEGTGDFCWVFAFDHCHDPGPEGGGS-NHNH2 (disulfide 8-16 (inferred)) [Affinity ligand CS-458] returned a % recovery in Elution A of 54.3%, a % recovery in Elution B of 0%, a % recovery in Flow of 1.8% and a % recovery in pH 2 of 0%. In assay [4], this molecule had a % recovery in Elution A of 55.6% and a % recovery in Flow of 1.4%.
FCWVFNFSHCS [TN9 isolate 03 (phage-displayed peptide, SEQ ID NO: 26)]: in assay [1], the R (ratio of the ELISA score with target present to the ELISA score without target) is 24. Besides, the ELISA signal in assay [2] was determined as 1.1 OD630.
On to AEGTGDHLCGAWFRPCDADPGPEGGGS-NHNH2 (disulfide 9-16 (inferred)) [Affinity ligand CS-454], for which, in assay [3], the % recovery in Elution A was 45.1%, the % recovery in Elution B was found to be 0%, the % recovery in Flow was 2.5% and the % recovery in pH 2 turned out to be 0%. For the same molecule, in assay [4], the % recovery in Elution A was found to be 42.4% and the % recovery in Flow was determined as 2.2%.
In assay [3], AEGTGDFHCIGVWFCLHDPGPEGGGS-NHNH2 (disulfide 9-15 (inferred)) [Affinity ligand CS-455] had a % recovery in Elution A of 1.4%, a % recovery in Elution B of 0%, a % recovery in Flow of 65.8% and a % recovery in pH 2 of 0%. In assay [4], this molecule showed a % recovery in Elution A of 1.3% and a % recovery in Flow of 61.6%.
The molecule HPCGAWFNPCPR [TN8 isolate 01 (phage-displayed peptide, SEQ ID NO: 19)] came in with an ELISA signal in assay [2] of 0.2 OD630.
In the case of RLCSWVSPCSA [TN7 isolate C5/G10 (phage-displayed peptide, SEQ ID NO: 9)], the R (ratio of the ELISA score with target present to the ELISA score without target) in assay [1] turned out to be 10. The molecule further gave an ELISA signal in assay [2] of 0.5 OD630.
In the case of AEGTGDFCWVFPFQHCADPGPEGGGS-NHNH2 (disulfide 8-16 (inferred)) [Affinity ligand CS-459], in assay [3], the % recovery in Elution A worked out at 42.1%, the % recovery in Elution B is 0%, the % recovery in Flow came out at 1.6% and the % recovery in pH 2 is 0%. Moreover, in assay [4], the % recovery in Elution A is 31.2% and the % recovery in Flow came out at 6.4%.
Regarding FCWVFQFRHCH [TN9/1 isolate … (SEQ ID NO: 77)], in assay [1], the R (ratio of the ELISA score with target present to the ELISA score without target) was 8.
In the case of HPCGSWLHPCAA [TN8 isolate 04 (phage-displayed peptide, SEQ ID NO: 12)], the R (ratio of the ELISA score with target present to the ELISA score without target) in assay [1] was 6. In assay [2], this molecule had an ELISA signal of 0.3 OD630.
RGCGSWLRPCLD [TN8 isolate 05 (phage-displayed peptide, SEQ ID NO: 11)] registered an ELISA signal in assay [2] of 0.2 OD630.
The same measure, in the same setting: as for FCWVHPFAHCL [TN9 isolate 02 (phage-displayed peptide, SEQ ID NO: 23)], the figure is 0.2 OD630.
In the case of FCWVFPFNHCD [TN9 isolate 02 (phage-displayed peptide, SEQ ID NO: 27)], in assay [1], the R (ratio of the ELISA score with target present to the ELISA score without target) was 8. In assay [2], this molecule displayed an ELISA signal of 0.4 OD630.
Molecule HGCGAWFRPCHA [TN8 isolate 01 (phage-displayed peptide, SEQ ID NO: 18)] gave an ELISA signal in assay [2] of 0.2 OD630.
FHCIGVWFCLH [TN7 isolate A09 (phage-displayed peptide, SEQ ID NO: 8)] yielded an ELISA signal in assay [2] of 0.1 OD630.
Consider HPCGAWLRPCYN [TN8 isolate 08 (phage-displayed peptide, SEQ ID NO: 20)], for which the R (ratio of the ELISA score with target present to the ELISA score without target) in assay [1] came to 20. In assay [2], this molecule had an ELISA signal of 1 OD630.
Regarding HPCGSWFNPCAH [TN8 isolate 02 (phage-displayed peptide, SEQ ID NO: 13)], the R (ratio of the ELISA score with target present to the ELISA score without target) in assay [1] is 8. This molecule gave an ELISA signal in assay [2] of 0.3 OD630.
